Legend:
DU145 cells = assay: flow cytometry on DU145 cells, rhIgGFc at 100 nM, detected with anti-IgGFc-specific PE secondary antibody (control)
PLEXIN B1 [1] = molecular target: T1, PLEXIN B1 (human, UniProt O43157 20-2135); assay: alkaline phosphatase ligand binding assay on DU145 cells B1 siRNA1 against scramble siRNA; APTag background subtracted
T1 construct: whole, on cells; Endogenous receptor on cells
Procedure: (§1) Cells were washed and then lysed. Plexin B1 levels were analyzed from lysates (30 μg) by polyacrylamide gel electrophoresis (PAGE). Western Blots were probed with anti-Plexin B1 and anti-phospho-Shc. Blots were re-probed with anti-vinculin and anti-Shc as loading control. DU145 cells were transfected with scramble siRNA, Plexin B1siRNA1 or PlexinB1 siRNA2 (10 nM) using RNAiMax™ reagent as directed by the manufacturer, (Invitrogen™, Missisauga, Ontario). Following 72 hours incubation the cells were replated at 20,000 cells/well in a 96-well flat bottom plate and let adhere for 4 hours. The remaining cells were lysed and assayed for PlexinB1 expression by Western Blot. The blot was reprobed with vinculin as loading control. Medium was replaced with DMEM without serum for 16 hours prior to the binding assay. […]
(§2) The binding assay was performed as previously described by […], J G. and LEDER, P. (1990), endogenous phosphatase heat inactivation was done in HBHA at 65° C. following the fixation step. Plate readings at 562 nm were taken initially and then every 24 hours. […]
(§3) DU145 cells transfected with scramble siRNA or, two distinct siRNAs targeting Plexin B1. […] AP-Sema3C binding to DU145 cells that were transfected with scramble or Plexin B1 siRNAs, where the mean and SEM AP-Sema3C binding performed was calculated in quadruplicate.

PLEXIN B1 [2] = molecular target: T1, PLEXIN B1; assay: alkaline phosphatase ligand binding assay on DU145 cells transfected with Plexin B1 siRNA B1 siRNA2 against scramble siRNA; APTag background subtracted
Procedure: as §1, §2, §3

T1 sequence (O43157 20-2135): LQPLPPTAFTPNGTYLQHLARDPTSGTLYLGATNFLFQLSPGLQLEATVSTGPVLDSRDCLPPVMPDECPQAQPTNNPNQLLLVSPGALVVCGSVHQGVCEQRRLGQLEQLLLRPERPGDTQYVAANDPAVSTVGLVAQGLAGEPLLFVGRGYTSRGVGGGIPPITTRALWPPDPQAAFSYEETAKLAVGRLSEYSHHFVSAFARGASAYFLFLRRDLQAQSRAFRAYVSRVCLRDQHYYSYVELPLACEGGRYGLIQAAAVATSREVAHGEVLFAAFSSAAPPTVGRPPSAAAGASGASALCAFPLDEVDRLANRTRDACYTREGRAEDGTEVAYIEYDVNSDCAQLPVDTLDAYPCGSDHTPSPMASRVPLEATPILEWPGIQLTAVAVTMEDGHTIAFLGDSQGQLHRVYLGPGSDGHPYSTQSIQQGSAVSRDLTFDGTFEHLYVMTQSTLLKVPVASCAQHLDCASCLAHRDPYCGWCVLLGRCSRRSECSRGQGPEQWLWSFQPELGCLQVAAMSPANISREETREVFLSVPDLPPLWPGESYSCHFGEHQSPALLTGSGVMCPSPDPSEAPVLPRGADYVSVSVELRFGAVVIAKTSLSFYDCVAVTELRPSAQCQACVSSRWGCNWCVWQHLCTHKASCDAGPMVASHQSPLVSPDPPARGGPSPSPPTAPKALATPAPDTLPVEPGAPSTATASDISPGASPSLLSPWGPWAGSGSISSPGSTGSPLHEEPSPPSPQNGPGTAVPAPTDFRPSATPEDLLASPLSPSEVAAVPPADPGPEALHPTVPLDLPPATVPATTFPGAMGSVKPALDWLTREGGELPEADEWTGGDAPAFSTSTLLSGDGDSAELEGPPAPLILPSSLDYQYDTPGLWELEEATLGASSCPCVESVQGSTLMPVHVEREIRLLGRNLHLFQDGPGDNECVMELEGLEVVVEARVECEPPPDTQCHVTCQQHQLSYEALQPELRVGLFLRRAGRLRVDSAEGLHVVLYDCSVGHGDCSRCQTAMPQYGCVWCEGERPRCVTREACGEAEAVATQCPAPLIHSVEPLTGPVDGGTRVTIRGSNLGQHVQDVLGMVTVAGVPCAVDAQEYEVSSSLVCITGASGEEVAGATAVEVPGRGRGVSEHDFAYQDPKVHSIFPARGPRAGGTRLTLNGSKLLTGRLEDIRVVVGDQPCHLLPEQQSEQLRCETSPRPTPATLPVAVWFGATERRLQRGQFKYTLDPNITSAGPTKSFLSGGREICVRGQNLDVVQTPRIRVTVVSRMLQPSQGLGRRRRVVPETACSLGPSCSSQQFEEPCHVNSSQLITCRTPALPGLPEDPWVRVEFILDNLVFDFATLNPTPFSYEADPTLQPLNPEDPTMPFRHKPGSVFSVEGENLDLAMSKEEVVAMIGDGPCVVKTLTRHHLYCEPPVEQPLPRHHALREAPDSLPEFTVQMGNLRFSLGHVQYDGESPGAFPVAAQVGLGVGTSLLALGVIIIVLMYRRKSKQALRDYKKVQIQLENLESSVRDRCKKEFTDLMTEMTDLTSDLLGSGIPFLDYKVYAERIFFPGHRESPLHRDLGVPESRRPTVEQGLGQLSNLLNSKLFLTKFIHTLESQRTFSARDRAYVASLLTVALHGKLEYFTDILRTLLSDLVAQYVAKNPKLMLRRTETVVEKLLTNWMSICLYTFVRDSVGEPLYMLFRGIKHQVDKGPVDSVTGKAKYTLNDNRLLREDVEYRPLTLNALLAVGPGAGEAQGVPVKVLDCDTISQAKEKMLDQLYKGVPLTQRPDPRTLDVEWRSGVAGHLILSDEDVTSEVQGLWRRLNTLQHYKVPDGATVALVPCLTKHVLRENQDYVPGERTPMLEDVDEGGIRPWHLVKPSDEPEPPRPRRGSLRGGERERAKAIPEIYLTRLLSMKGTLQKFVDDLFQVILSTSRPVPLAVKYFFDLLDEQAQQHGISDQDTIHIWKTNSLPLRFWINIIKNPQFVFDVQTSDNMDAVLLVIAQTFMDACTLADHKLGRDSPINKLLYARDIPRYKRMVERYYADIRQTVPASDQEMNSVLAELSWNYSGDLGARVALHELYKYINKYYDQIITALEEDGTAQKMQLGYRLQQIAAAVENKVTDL

Molecule	level of staining at 100 nM (DU145 cells) [%]	fold reduction of binding on Plexin B1 knockdown against scramble siRNA (PLEXIN B1 [1]) [fold]	fold reduction of binding on Plexin B1 knockdown against scramble siRNA (PLEXIN B1 [2]) [fold]
Recombinant human IgGFc	6.01	–	–
AP-SEMA3C (ligand, UniProt Q99985 21-751, looked up, Used as conditioned medium from 293T cells; also called AP-SEMA 3C construct; not shown: alkaline phosphatase tag of the APTag vector) GSSQPQARVYLTFDELRETKTSEYFSLSHHPLDYRILLMDEDQDRIYVGSKDHILSLNINNISQEALSVFWPASTIKVEECKMAGKDPTHGCGNFVRVIQTFNRTHLYVCGSGAFSPVCTYLNRGRRSEDQVFMIDSKCESGKGRCSFNPNVNTVSVMINEELFSGMYIDFMGTDAAIFRSLTKRNAVRTDQHNSKWLSEPMFVDAHVIPDGTDPNDAKVYFFFKEKLTDNNRSTKQIHSMIARICPNDTGGLRSLVNKWTTFLKARLVCSVTDEDGPETHFDELEDVFLLETDNPRTTLVYGIFTTSSSVFKGSAVCVYHLSDIQTVFNGPFAHKEGPNHQLISYQGRIPYPRPGTCPGGAFTPNMRTTKEFPDDVVTFIRNHPLMYNSIYPIHKRPLIVRIGTDYKYTKIAVDRVNAADGRYHVLFLGTDRGTVQKVVVLPTNNSVSGELILEELEVFKNHAPITTMKISSKKQQLYVSSNEGVSQVSLHRCHIYGTACADCCLARDPYCAWDGHSCSRFYPTGKRRSRRQDVRHGNPLTQCRGFNLKAYRNAAEIVQYGVKNNTTFLECAPKSPQASIKWLLQKDKDRRKEVKLNERIIATSQGLLIRSVQGSDQGLYHCIATENSFKQTIAKINFKVLDSEMVAVVTDKWSPWTWASSVRALPFHPKDIMGAFSHSEMQMINQYCKDTRQQHQQGDESQKMRGDYGKLKALINSRKSRNRRNQLPES	–	2.4	1.9
